According to the supplement of paper PMC9170038:

What follows are sequences tested on MS2 coat protein (assay: apparent KD of MS2 coat protein; higher = weaker reporter binding). Details: Eterna round: R107; input ligand: arginine 13.2 mM.
In short: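 Each design's apparent KD comes from the median of binding-curve fits to its normalised clusters. Those clusters carried RNA switches transcribed on-chip from Illumina sequencing clusters. SNAP-549-labelled MS2 coat protein was titrated onto them in twofold steps (0.7 or 1.5 nM to 3 µM; per step 0.8–1.5 h down to 10–20 min). Conditions were 100 mM Tris-HCl pH 7.5, 80 mM KCl, 4 mM MgCl2, without or with constant ligand.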

Going from “AUCUAUAGAGCGGCCGCCACUGAAUACAUGAGGAUCACCCAUGUAAUGUUAAGGUGGUCCUAGCUCAGGACCGGGCUCUAUAGAU [Tryp B Ex t4]” to “UGUAUGUGAUCUGAUACCAGAGUGACGCGAAAGCGAAACCUGAGGAUCACCCUGGUAAAACUCCCUUGGCAGCAGAUCGCAUACU”, the “apparent KD of MS2 coat protein” value rises from 30 nM to 76 nM (2.5-fold).

Compared with “UCGGGCAGAGCGGCCGCCACUGUUUGGCAUGCGGAUGACGGAACAUGAGGAUCACCCAUGUUGAUUAGGACCGGGCUUGCGGAGA [eefullin]”, “GCACCAGGUACGGAUACCAGCUAUAGGUACAUGUCAGGACAUGAGGAUCACCCAUGUGGUAGCCCUUGGCAGCUGUACCUGGUGC [EThB NP+V+V2 #2]” is 1.6-fold higher in “apparent KD of MS2 coat protein” value: 11.6 nM for the first, 18.5 nM for the second.

Compared with “ACGUCCGGGUUAAUCGUGGGCAUGGUCGAUACCAGUAUUUUAAUCUACCCUUGGCAGCGACAUGAGGAUCACCCAUGUGCGAUGA [XTheo A #17]”, “CUAUAAAUAUGAAGGAGCGUCGAAAAUGGGUAAACAUGAGGAUCACCCAUGUAAAGGGAACGACAGGUAGGUCGCAUAUUUAUAG [AstromonsSSArgB#11]” is 9-fold higher in “apparent KD of MS2 coat protein” value: 15.5 nM for the first, 139 nM for the second.

Compared with “AUAUAUACAUGAGGAUCACCCAUGUUAUUUCGAGGACCGGUACGGCCGCCACUCGAUAGAGUAGAAGUAUUUUGGGAUAGUUGAU [JR_SSTryptoA_Sub015]”, “AGCCACUCGAGUGAUCCUCACGAGUGGCAACGAGGACCGGUACGGCCGCCACUCGAAUAACAUGAGGAUCACCCAUGUUUAUAAU [#01 Tryptophan A - Same State]” is 2.6-fold higher in “apparent KD of MS2 coat protein” value: 19.7 nM for the first, 51.1 nM for the second.

Going from “AGAGCAUUGACGGCCGCCACUCAUGUCACAUGAGGAUCACCCAUGUGAUGGGUGAUAGCCCGGUUGAGGACCGGGUCAAUGCUCA [Omei Tryp SS B v1]” to “AUAAAUAUAACCGAUACCAGCCUUAUACAUGAGGAUCACCCAUGUUAUGCUUCCUUUUUUGGCCCUUGGCAGCGGAAAUGGGUAA [AstrosSSTheB#2]”, the “apparent KD of MS2 coat protein” value rises from 18.4 nM to 47.6 nM (2.6-fold).

First: AGCCAUGGAAACAUGGCGGCGGCUUGGGCGCGAGGACCGGUACGGCCGCCACUCGGGCAACAUGAGGAUCACCCAUGUUCCUCAU [ETA NP+V+V2 #18]
Second: UUUUUUUUUUACAUGAGGAUCACCCAUGUUCGAGGACCGGUACGGCCGCCACUCGUUUUUGUUGUGGUAGGGUUAGGGUUAGGGU [Turkey Lurky]
The “apparent KD of MS2 coat protein” value of the first is 4.4-fold higher: 84.6 nM for the first, 19.4 nM for the second.

Compared with “CAAUAAGUAACUGAUACCAGUGUACUGACAUGAGGAUCACCCAUGUUGGGUUUUGUUGUACACCCUUGGCAGCAGAAUCUUAUUG [AstrosExyTheB#12]”, “CGGGCCGCUGCGGAUACCAGUUGAGCAUAGGUAGUGUAUGACAUGAGGAUCACCCAUGUUAACCCUUGGCAGCCGAGAGGGCAGA [theeternabot_exclusion_MS2_Theo_B_13]” is 4.2-fold lower in “apparent KD of MS2 coat protein” value: 44.2 nM for the first, 10.4 nM for the second.

Compared with “AUUCAUGGAAACAUGACAUAGGGAUCUAGCCGAGGACCGGUACGGCCGCCACUCGCUUGGAGGCACAUGAGGAUCACCCAUGUUA [SS Tryp A #6]”, “AGCGCAUCCGUAUAGGAUGCGCUCCAUGAAGGAGCGCGGGAAACCGCAGGUAGGUCGCGUGACAUGAGGAUCACCCAUGUGUAUU [#17 Same State - Arginine A]” is 2.5-fold lower in “apparent KD of MS2 coat protein” value: 42.3 nM for the first, 16.9 nM for the second.

Going from “ACAUGAGGAUCACCCAUGUUCCUCUUUGAUACCAGUGAGUUGUUUCGCCCUUGGCAGCGAGUUUUUUUUUUUUUGUUUUGUUUGG [6.R]” to “AGCUUGUAGUCGGCCGCCACUAAUAGGGAUCCUAUCGAGGCGGGUAACAUGAGGAUCACCCAUGUUAGGACCGGGACAGCGAGGA [Cetian]”, the “apparent KD of MS2 coat protein” value falls from 173 nM to 10 nM (17-fold).

First: AGACAUGAGGAUCACCCAUGUAGCAUGGAUACCAGAUGUAGAUUUAUCCCUUGGCAGCUGUGGUAAAGUGAUGCAUUGCUCCUAG [Exclusion - Theophylline A (Freestyle 5)]
Second: GGUUACUCUACGGCCGCCACUGAACAUGAGGAUCACCCAUGUAAUGUUCAGUAGUCUUUAGACAACAGGACCGGGUAGUGUAACC [Tryptophan B 6]
The “apparent KD of MS2 coat protein” value of the first is 3.8-fold lower: 28.5 nM for the first, 109 nM for the second.

“AGAGCAUUGACGGCCGCCACUCGUGUCACAUGAGGAUCACCCAUGUGAUGGGUGAUAGCCCGGUUGAGGACCGGGUCAAUGCUCA [Omei Tryp SS B v7]” and “GCCGGGCCCGCGGCCGCCACUGAGAGAGUCGUGUGAACAUGAGGAUCACCCAUGUAAUAUAUAUACAGGACCGGGCGGGCCCGGC [4.X]” are within 1.5-fold of each other in “apparent KD of MS2 coat protein” value: 13.1 nM for the first, 13.8 nM for the second.

“AAUAAUAUCCUCAUGUGAGUCGUACCGUAACGAGGACCGGUACGGCCGCCACUCGAACAUGAGGAUCACCCAUGUAGGUACGACA [M'-T'-T-MS2-T'' - Design 8]” and “GCGAUGGAGCGAAGGAGCGUGCUGGUACAUGAGGAUCACCCAUGUGAGUCGCAGCGCUAAGCACAGGUAGGUCGCGCUCCAUCGC [EAB NP+V+V2 #11]” are within 1.5-fold of each other in “apparent KD of MS2 coat protein” value: 42.1 nM for the first, 49.1 nM for the second.

Compared with “UAAUACCAGGUCAACGUACCAGGUGAUCAACGAGGACCGGUACGGCCGCCACUCGAAACAUGAGGAUCACCCAUGUAAGACCUGG [|T'-M'-Trp-Ms2|_Design 2_ML2]”, “GGGACACCGAGAAGGAGCGCAUCCAAACCACACAUGAGGAUCACCCAUGUAUAAAUAUGCAUGCAGGUAGGUCGCUCGGCGUCUC [Orordionbi]” is 3.7-fold higher in “apparent KD of MS2 coat protein” value: 20.9 nM for the first, 76.5 nM for the second.

First: GGUCUCGCGGGCGAUACCAGCUUGAUCGUACUGGCCUGGUACAUGAGGAUCACCCAUGUAAGCCCUUGGCAGCGCGCGCGAGACC [#1 Exclusion - Theophylline B Attempt #5 (HarryS)]
Second: GCAUCCUAGUCGGCCGCCACUGCAAUUGUAGUACUGCUACAUGAACAUGAGGAUCACCCAUGUAGCAGGACCGGGACUAGGAUGC [(Trp1)-(TM)''-(TM)'-(Ms2)-(Trp2)_Design10]
The “apparent KD of MS2 coat protein” value of the first is 4.3-fold lower: 10.4 nM for the first, 44.4 nM for the second.

Compared with “UGUAUGUGAUCUGAUACCAGCCUCAUAGCUUGAGGAUCACCCAAGUGGAGCGGAAACGCUGGCCCUUGGCAGCAGAUCGCAUACU [TheoBS 1 #AlternativeMS2]”, “CGGACAUGAGGAUCACCCAUGUACACUGAAGGAGCGUCGAGAACGACAGGUAGGUCGCAGGCUAAGGAAGGUGAUGCUCAAGAAG [Exclusion Arginine A GF5]” is 6.7-fold lower in “apparent KD of MS2 coat protein” value: 252 nM for the first, 37.8 nM for the second.

Compared with “AAAAUCCUACUUGAGGAUCACCCAGGUGAAGGAGCGCCCGAAAGGGCAGGUAGGUCGCACCUGAGGAUCACCCUGGUAAACCUAA [ArgEX 8 #DoubleMS2 #OpenEnded]”, “AGAUGCCACUGUGGAUAGCACGAUGCCGAUACCAGCUAGGAAACUAGCCCUUGGCAGCGGUACAUGAGGAUCACCCAUGUAUCCU [EThA NP+V+V2 #9]” is 6.5-fold lower in “apparent KD of MS2 coat protein” value: 79.1 nM for the first, 12.2 nM for the second.

Compared with “AAAUAAAUACAUGAGGAUCACCCAUGUGAAGGAGCGCCCGUUAGGGCAGGUAGGUCGCGCAUGAAUAACUCCGUGCAAAAGCACA [ArgEX 19 #OpenEnded]”, “UGCUACAUGAGGAUCACCCAUGUGGGUGAUACCAGCAUUCGUUUAUGCCCUUGGCAGCGCAGCCGAACCAAUCAUUCGGCAGAAA [Artiusar]” is 2.8-fold lower in “apparent KD of MS2 coat protein” value: 57.8 nM for the first, 21 nM for the second.

“AGGGACAUGAGGAUCACCCAUGUUGAAACUCGAGGACCGGUACGGCCGCCACUCGUAUAAUCGAUGUCCAUUUGGGAUUCCGGCU [theeternabot_sameState_MS2_Trp_A_17]” and “GCUAGGUCAUCGGCCGCCACUAACGACGGUUCCAACAUGAGGAUCACCCAUGUGCCACAUGCGCAUAGGACCGGGAUGACCUAGC [SSTB NP+V+V2 #5]” are within 1.5-fold of each other in “apparent KD of MS2 coat protein” value: 21.4 nM for the first, 31.1 nM for the second.

“UGUACUAUGUGAAGGAGCGCCACAUGAGGAUCACCCAUGUAAACAUGAGGAUCACCCAUGUGGCAGGUAGGUCGCACAUAGUACU [ArgBS - Double MS2 - I don't expect this to work]” and “CACAGUGCGAAUUUGAAAUCGCACGAUCCUCGAGGACCGGUACGGCCGCCACUCGCGCGGGUCGUACAUGAGGAUCACCCAUGUC [Beertele]” are within 1.5-fold of each other in “apparent KD of MS2 coat protein” value: 49.7 nM for the first, 44 nM for the second.
